In publication PMC12610401, “The miR395b–ABI5 module regulates amylopectin branching and biosynthesis and affects lotus root quality”:

T1: NnABI5 (ABA Insensitive 5) (Nelumbo nucifera, UniProt A0A1U8B646 1-478)
T1 sequence: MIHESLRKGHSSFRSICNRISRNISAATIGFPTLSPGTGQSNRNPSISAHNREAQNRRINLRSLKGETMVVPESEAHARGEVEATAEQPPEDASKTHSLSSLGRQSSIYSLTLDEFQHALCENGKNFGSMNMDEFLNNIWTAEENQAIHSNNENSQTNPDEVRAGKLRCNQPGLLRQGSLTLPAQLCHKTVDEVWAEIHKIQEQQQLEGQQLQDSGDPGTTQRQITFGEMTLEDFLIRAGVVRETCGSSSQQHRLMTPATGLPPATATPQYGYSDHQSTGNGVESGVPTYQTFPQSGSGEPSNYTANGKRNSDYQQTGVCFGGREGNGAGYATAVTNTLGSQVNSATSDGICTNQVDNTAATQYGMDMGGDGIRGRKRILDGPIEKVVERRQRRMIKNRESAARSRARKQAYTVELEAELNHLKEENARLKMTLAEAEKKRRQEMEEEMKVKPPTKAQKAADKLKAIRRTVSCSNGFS


Tests used:
[1] = target: T1, NnABI5 (ABA Insensitive 5); test: EMSA; unlabelled probe weakens the shift in a dose-dependent way; Not stated; EMSA with Beyotime chemiluminescent nucleic acid detection kit; settings: protein: recombinant; tags: His (pCold TF vector); chain copies: 2; blunt
[2] = target: T1, NnABI5 (ABA Insensitive 5); test: EMSA; Not stated; EMSA with Beyotime chemiluminescent nucleic acid detection kit; settings: protein: recombinant; tags: His (pCold TF vector); chain copies: 2; blunt

Binder | binding result [1] | binding result [2]
NnSS2 promoter probe (WT) (dsDNA) DNA 1: CTTCCTCGGTTTTTCCACGTGTTTCTTCTGGAGTAT DNA 2: ATACTCCAGAAGAAACACGTGGAAAAACCGAGGAAG | binds | –
NnSS2 promoter mutant probe (dsDNA) DNA 1: CTTCCTCGGTTTTTCAAAAAATTTCTTCTGGAGTAT DNA 2: ATACTCCAGAAGAAATTTTTTGAAAAACCGAGGAAG | – | no binding
NnSBEII promoter probe (WT) (dsDNA) DNA 1: GTGGCAACGACTGGTCACGTGACTTACGTCACCCAT DNA 2: ATGGGTGACGTAAGTCACGTGACCAGTCGTTGCCAC | binds | –
NnSBEII promoter mutant probe (dsDNA) DNA 1: GTGGCAACGACTGGTAAAAAAACTTACGTCACCCAT DNA 2: ATGGGTGACGTAAGTTTTTTTACCAGTCGTTGCCAC | – | no binding
